Source: patent publication US20140072613A1, “Compositions and Methods for Treating Cutaneous Scarring” (priority 2012, published 2014)

What was measured:
[1] = target: EphA2 (h) (Homo sapiens, UniProt P29317); experiment: biochemical; details: EphA2(h); 100 μM
Excerpt: (§1) Specifically, in these assays, a positively charged substrate is phosphorylated with a radiolabeled phosphate group from an ATP if the kinase is not inhibited by an inhibitor peptide. The positively charged substrate then is attracted to a negatively charged filter membrane, quantified with a scintillation counter, and compared to a 100% activity control.

[2] = target: Fgr (h) (Homo sapiens, UniProt P09769); experiment: biochemical; details: Fgr(h); 100 μM
Excerpt: as §1

[3] = target: Yes (h) (Homo sapiens, UniProt P07947); experiment: biochemical; details: Yes(h); 100 μM
Excerpt: as §1

[4] = target: MAPKAP-K2 (h) (Homo sapiens, UniProt P49137); experiment: Millipore radiometric kinase assay (IC50 Profiler Express / kinase profiling); format: biochemical; details: MAPKAP-K2(h); 100 μM
Chain of MAPKAP-K2 (h) (P49137 whole entry): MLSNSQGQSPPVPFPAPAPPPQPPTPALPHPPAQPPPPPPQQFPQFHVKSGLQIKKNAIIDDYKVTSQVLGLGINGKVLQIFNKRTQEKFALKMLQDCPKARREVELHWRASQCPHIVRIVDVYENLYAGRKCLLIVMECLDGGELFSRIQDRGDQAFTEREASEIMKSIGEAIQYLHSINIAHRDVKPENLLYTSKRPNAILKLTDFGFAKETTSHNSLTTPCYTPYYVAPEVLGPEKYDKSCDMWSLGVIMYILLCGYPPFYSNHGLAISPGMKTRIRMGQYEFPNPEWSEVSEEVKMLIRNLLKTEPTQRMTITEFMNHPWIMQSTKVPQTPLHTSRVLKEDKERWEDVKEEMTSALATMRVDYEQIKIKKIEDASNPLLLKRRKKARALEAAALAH
Excerpt: as §1

[5] = target: MAPKAP-K3 (h) (Homo sapiens, UniProt Q16644); experiment: as above; format: biochemical; details: MAPKAP-K3(h); 100 μM
Chain of MAPKAP-K3 (h) (Q16644 whole entry): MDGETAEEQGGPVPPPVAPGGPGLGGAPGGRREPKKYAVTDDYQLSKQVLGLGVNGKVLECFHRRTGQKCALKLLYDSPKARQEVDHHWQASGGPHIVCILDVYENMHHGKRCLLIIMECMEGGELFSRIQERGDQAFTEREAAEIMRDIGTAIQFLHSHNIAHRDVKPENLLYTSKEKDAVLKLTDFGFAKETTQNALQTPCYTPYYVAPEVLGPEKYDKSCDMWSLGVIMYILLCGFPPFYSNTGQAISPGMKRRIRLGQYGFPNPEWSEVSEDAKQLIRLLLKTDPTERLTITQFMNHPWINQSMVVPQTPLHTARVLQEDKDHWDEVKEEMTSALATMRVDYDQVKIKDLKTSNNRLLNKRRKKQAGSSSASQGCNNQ
Excerpt: as §1

[6] = target: TrkB (h) (Homo sapiens, UniProt Q16620); experiment: as above; format: biochemical; details: TrkB(h); 100 μM
Excerpt: as §1

[7] = target: T1, DMPK (h) (Homo sapiens, UniProt Q09013); experiment: Millipore radiometric kinase assay (IC50 Profiler Express); format: biochemical; details: DMPK(h); 100 μM
T1 sequence (Q09013 1-629): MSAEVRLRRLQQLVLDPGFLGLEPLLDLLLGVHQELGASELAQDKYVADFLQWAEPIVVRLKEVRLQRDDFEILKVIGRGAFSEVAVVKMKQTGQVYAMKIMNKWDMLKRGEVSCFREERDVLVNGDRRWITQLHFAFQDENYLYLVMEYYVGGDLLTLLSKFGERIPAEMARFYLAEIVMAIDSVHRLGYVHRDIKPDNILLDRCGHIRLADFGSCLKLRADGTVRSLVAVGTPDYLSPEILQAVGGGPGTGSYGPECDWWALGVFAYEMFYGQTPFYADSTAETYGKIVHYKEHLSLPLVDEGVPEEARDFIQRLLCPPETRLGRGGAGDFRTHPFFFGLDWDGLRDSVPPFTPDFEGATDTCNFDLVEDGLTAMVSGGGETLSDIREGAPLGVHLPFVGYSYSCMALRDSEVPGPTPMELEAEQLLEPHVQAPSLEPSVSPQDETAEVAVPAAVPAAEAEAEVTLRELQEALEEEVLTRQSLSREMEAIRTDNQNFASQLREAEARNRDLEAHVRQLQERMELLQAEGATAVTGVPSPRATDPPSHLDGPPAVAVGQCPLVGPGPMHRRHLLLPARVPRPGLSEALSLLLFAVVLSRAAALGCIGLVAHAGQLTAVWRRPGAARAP
Excerpt: as §1

[8] = target: T2, DRAK1 (h) (Homo sapiens, UniProt Q9UEE5); experiment: as above; format: biochemical; details: DRAK1(h); 100 μM
T2 sequence (Q9UEE5 1-414): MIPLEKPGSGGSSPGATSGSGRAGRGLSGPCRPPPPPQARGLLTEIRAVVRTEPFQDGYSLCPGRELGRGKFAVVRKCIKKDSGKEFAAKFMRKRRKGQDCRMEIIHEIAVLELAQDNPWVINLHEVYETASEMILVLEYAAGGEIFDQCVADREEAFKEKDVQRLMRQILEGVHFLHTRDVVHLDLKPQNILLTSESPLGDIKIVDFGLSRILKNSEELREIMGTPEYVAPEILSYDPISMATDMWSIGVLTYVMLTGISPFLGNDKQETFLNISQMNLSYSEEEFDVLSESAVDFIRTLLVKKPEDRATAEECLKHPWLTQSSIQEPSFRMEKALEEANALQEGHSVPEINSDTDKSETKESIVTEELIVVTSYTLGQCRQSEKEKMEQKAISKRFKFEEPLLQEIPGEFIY
Excerpt: as §1

[9] = target: EGFR (L861Q) (h) (Homo sapiens, UniProt P00533, L861Q); experiment: as above; format: biochemical; details: EGFR(L861Q)(h); 100 μM
Excerpt: as §1

[10] = target: LOK (h) (Homo sapiens, UniProt O94804); experiment: as above; format: biochemical; details: LOK(h); 100 μM
Chain of LOK (h) (O94804 whole entry): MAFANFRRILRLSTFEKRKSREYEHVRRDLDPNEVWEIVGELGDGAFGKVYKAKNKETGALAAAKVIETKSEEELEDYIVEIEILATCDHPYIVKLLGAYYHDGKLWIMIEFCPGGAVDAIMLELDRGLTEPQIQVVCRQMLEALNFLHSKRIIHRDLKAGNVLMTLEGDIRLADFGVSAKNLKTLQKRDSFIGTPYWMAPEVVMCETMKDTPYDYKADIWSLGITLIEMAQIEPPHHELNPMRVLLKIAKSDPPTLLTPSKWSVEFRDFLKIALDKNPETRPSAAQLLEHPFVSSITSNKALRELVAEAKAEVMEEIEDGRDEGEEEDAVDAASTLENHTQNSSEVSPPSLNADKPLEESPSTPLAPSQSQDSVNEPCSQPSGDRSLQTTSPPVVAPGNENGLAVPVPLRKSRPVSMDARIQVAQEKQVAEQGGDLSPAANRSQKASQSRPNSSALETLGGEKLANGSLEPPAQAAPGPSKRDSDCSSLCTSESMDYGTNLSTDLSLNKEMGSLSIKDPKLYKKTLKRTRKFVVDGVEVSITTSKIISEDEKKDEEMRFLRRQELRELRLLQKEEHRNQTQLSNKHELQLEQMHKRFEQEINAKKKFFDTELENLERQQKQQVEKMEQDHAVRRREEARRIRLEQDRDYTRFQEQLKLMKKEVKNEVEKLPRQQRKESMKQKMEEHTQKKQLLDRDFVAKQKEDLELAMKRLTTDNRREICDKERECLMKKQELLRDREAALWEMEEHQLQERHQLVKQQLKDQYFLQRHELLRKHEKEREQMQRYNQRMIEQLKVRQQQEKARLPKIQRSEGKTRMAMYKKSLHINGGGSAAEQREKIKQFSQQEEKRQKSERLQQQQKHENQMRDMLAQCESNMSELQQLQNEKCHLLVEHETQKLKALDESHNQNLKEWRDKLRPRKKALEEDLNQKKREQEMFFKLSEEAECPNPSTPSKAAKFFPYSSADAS
Excerpt: as §1

[11] = target: 266 human kinases (Homo sapiens, UniProt O96017, I157T); experiment: biochemical; format: biochemical; details: CHK2(I157T)(h); 100 μM
Chain of 266 human kinases (Homo sapiens, UniProt O96017, I157T) (O96017 whole entry I157T): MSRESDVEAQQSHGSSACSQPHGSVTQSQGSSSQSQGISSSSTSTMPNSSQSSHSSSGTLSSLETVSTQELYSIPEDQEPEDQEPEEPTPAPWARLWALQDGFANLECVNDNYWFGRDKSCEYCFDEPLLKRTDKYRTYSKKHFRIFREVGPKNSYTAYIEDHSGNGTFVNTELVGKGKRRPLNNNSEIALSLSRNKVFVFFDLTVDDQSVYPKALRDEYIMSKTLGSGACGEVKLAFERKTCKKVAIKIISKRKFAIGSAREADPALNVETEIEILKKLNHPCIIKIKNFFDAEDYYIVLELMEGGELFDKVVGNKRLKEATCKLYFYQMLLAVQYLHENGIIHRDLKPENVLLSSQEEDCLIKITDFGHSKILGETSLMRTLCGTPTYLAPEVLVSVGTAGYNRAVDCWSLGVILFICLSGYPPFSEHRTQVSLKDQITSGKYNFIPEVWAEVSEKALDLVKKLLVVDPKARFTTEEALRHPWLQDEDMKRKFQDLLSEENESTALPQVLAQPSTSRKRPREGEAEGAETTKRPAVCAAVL
How it was run: (§2)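 Kinase phosphorylates cationic substrate with radiolabelled ATP phosphate; substrate retained on anionic filter membrane; scintillation count; % of 100% activity control.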

[12] = target: 266 human kinases (Homo sapiens, UniProt P80192); experiment: biochemical; format: biochemical; details: MLK1(h); 100 μM
Chain of 266 human kinases (Homo sapiens, UniProt P80192) (P80192 whole entry): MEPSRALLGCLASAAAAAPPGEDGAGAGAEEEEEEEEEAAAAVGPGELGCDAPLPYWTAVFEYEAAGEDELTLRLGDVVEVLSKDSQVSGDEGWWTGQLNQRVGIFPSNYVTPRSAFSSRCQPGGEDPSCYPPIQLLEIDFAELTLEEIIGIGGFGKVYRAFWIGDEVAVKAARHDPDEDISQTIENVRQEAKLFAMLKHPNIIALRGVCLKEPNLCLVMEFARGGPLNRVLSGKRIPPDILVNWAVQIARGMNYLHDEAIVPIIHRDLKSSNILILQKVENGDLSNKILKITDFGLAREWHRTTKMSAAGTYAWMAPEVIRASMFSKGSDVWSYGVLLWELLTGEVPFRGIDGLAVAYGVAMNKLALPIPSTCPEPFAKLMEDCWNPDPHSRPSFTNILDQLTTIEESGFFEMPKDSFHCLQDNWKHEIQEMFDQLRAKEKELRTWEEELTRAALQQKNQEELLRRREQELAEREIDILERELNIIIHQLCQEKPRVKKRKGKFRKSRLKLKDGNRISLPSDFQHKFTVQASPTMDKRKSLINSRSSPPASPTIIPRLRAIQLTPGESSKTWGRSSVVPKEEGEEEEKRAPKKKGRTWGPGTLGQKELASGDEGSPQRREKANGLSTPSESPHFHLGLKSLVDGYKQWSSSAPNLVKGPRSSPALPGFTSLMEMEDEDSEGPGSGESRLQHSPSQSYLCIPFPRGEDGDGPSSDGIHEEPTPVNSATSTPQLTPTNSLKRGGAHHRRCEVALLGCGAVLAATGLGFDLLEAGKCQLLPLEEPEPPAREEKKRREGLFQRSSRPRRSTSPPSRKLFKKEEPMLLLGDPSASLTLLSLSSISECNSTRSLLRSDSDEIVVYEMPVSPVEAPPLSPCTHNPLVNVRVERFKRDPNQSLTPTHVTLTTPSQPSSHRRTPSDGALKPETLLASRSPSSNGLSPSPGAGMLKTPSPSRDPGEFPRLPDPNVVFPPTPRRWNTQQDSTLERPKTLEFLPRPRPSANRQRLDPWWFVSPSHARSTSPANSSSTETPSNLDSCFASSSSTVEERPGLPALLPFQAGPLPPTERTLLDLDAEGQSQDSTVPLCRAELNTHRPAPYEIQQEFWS
How it was run: as §2

[13] = target: T3, 266 human kinases (Homo sapiens, UniProt Q13976); experiment: biochemical; format: biochemical; details: PKG1α(h); 100 μM
T3 sequence (Q13976 1-671): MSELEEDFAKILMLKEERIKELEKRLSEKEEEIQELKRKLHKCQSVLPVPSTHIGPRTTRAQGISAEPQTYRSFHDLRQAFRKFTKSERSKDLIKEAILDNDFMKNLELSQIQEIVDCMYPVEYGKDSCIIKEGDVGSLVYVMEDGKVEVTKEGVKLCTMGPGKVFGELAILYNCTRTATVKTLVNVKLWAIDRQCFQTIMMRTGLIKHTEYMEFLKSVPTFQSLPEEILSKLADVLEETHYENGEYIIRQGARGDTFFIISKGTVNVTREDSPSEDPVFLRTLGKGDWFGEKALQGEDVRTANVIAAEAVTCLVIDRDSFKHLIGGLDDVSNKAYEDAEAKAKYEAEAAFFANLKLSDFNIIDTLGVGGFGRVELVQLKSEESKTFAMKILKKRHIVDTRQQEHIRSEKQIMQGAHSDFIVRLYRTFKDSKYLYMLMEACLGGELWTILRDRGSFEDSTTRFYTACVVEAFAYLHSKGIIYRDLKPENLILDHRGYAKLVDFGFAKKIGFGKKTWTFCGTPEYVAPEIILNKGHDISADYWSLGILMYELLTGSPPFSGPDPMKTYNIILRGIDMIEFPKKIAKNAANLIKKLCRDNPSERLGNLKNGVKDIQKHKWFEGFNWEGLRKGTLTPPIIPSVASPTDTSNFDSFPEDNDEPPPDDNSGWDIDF
How it was run: as §2

[14] = target: 266 human kinases (Homo sapiens, UniProt P04629); experiment: biochemical; format: biochemical; details: TrkA(h); 100 μM
Chain of 266 human kinases (Homo sapiens, UniProt P04629) (P04629 33-796): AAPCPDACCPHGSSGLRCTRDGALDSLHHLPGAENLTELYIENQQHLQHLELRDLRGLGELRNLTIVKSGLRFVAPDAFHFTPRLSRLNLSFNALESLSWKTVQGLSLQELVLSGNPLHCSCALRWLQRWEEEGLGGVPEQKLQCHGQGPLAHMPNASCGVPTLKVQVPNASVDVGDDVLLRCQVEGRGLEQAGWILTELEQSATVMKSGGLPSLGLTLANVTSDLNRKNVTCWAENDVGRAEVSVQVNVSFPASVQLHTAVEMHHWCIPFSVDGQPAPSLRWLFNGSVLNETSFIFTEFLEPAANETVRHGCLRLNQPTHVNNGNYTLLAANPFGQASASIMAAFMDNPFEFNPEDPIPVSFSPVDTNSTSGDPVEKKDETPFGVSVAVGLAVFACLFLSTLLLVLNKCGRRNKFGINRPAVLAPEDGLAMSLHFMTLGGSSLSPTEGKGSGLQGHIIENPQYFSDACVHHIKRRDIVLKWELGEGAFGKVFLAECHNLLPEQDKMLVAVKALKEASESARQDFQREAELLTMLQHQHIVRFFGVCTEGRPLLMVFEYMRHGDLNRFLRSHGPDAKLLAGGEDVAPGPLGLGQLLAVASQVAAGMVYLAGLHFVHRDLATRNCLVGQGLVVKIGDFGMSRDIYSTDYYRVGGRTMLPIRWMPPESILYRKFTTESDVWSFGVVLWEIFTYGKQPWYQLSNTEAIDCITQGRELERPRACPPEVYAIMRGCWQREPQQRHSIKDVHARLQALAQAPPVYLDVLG
How it was run: as §2

[15] = target: 266 human kinases (Homo sapiens, UniProt Q16539); experiment: biochemical; format: biochemical; details: SAPK2a(h); 100 μM
Chain of 266 human kinases (Homo sapiens, UniProt Q16539) (Q16539 whole entry): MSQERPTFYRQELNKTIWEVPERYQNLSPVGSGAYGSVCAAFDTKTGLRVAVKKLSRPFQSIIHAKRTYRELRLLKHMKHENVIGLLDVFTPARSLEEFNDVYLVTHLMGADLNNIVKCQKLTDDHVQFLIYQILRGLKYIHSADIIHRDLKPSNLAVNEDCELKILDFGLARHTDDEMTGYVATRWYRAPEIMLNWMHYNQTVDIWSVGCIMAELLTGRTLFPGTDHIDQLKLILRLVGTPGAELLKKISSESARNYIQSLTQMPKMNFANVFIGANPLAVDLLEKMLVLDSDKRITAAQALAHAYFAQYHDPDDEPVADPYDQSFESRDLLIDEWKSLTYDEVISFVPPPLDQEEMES
How it was run: as §2

| Sequence | % activity [1] [%] | % activity [2] [%] | % activity [3] [%] | % activity [4] [%] | % activity [5] [%] | % activity [6] [%] | % activity [7] [%] | % activity [8] [%] | % activity [9] [%] | % activity [10] [%] | % activity [11] [%] | % activity [12] [%] | % activity [13] [%] | % activity [14] [%] | % activity [15] [%] |
| --- | --- | --- | --- | --- | --- | --- | --- | --- | --- | --- | --- | --- | --- | --- | --- |
| YARAAARQARAKALNRQLGVA (mammal) [MMI-0200] | 95 | 71 | 93 | 35 | 39 | 7 | 66 | 34 | 74 | 67 | 85 | 84 | 70 | – | – |
| HRRIKAWLKKIKALARQLGVAA (mammal) [MMI-0500] | – | – | – | 9 | 9 | 12 | 12 | 8 | 15 | 7 | 3 | 43 | 25 | 24 | 52 |
